Results published in publication PMC10716038, “Talin and kindlin use integrin tail allostery and direct binding to activate integrins” (Nature Structural & Molecular Biology, 2023).
Where “and” joins values, the source holds several entries; their conditions need not be identical. Equal entries are not always repeated. No end group written: not given here.

Experiments:
Conditions in all cases: both partners purified
THD1 I398A = target: T1, THD1 I398A (UniProt P26039 1-405, I398A); assay: MST; apparent; THD1 or THD1 mutants titrated to 488–β3-CT in the presence of 30-40 µM KIND2; MST buffer
T1 construct: talin-1 (TLN1) head domain, residues 1-405, I398A; source: E. coli (DE3) Rosetta 2, purified (IMAC, SEC); not shown: His10-SUMO, N-terminal, cleaved

THD1 I396A = target: T2, THD1 I396A (UniProt P26039 1-405, I396A); assay: as above
T2 construct: talin-1 (TLN1) head domain, residues 1-405, I396A; source: E. coli (DE3) Rosetta 2, purified (IMAC, SEC); not shown: His10-SUMO, N-terminal, cleaved

THD1 K404A = target: T3, THD1 K404A (UniProt P26039 1-405, K404A); assay: as above
T3 construct: talin-1 (TLN1) head domain, residues 1-405, K404A; source: E. coli (DE3) Rosetta 2, purified (IMAC, SEC); not shown: His10-SUMO, N-terminal, cleaved

KIND2 Y13A = target: T4, KIND2 Y13A (UniProt Q8CIB5 1-680, Y13A); assay: MST; unlabelled protein titrated to 50-200 nM ATTO 488-labelled β-CT peptide, no third protein; 20 mM Tris pH 7.5, 200 mM NaCl, 1 mM TCEP, 0.05% Tween-20; Kd of individual titrations (in S0002 mean and sd, n = 2)
T4 construct: kindlin-2 (KIND2), recombinant, Y13A; source: E. coli Rosetta, purified (IMAC, SEC); not shown: His10-SUMO, N-terminal, cleaved
T4 sequence (looked up): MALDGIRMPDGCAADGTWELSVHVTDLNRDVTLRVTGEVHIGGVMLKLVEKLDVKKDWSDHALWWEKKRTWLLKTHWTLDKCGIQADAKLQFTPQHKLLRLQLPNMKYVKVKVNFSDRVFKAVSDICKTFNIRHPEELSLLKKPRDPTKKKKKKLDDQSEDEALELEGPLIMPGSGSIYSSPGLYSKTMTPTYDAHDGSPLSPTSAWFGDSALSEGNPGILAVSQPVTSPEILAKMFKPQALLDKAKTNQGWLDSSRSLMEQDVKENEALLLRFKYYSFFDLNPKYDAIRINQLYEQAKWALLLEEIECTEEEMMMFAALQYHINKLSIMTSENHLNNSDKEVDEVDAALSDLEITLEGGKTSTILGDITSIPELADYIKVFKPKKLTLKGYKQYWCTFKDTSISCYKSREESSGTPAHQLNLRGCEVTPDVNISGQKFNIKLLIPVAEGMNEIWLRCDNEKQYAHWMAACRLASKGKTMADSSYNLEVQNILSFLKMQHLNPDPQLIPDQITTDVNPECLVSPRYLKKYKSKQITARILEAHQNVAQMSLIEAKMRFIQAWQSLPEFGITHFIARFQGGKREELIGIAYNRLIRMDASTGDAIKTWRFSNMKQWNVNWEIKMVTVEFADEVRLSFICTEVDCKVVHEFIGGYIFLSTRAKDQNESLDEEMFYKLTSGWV

[1] = target: T5, talin-1 head domain (THD1) (UniProt P26039 1-405); assay: as above
T5 construct: talin-1 (TLN1) head domain (THD), residues 1-405; murine TLN1 cDNA is named only for the cell lines; also called WT; source: E. coli (DE3) Rosetta 2, purified (IMAC, SEC); not shown: His10-SUMO, N-terminal, cleaved

kindlin-2 (KIND2) [2] = target: T6, kindlin-2 (KIND2) (UniProt Q8CIB5 1-680); assay: MST; apparent; KIND2 titrated to 488–β3-CT in the presence of 250-450 µM TLN1-F3; MST buffer
T6 construct: kindlin-2 (KIND2), recombinant; with the F1 loop and the PH domain (unlike ΔKIND2); source: E. coli Rosetta, purified (IMAC, SEC); not shown: His10-SUMO, N-terminal, cleaved
T6 sequence (looked up): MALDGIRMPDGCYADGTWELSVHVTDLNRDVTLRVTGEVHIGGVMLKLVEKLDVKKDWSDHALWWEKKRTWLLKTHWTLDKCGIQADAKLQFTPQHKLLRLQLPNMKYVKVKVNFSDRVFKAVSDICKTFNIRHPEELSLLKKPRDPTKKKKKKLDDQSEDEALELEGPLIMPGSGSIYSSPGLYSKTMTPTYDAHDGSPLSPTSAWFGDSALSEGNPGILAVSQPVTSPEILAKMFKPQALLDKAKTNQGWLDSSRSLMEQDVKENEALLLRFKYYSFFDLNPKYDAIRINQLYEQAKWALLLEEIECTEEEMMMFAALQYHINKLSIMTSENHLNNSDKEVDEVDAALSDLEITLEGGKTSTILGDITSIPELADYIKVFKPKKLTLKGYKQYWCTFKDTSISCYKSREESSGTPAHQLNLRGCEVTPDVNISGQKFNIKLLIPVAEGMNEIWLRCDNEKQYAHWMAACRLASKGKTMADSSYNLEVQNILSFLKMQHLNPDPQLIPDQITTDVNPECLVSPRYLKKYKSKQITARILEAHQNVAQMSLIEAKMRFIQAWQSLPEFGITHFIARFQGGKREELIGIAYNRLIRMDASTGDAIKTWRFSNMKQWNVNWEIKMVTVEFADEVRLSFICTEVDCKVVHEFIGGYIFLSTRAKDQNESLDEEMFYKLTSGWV

[3] = target: T5, talin-1 head domain (THD1); assay: MST; apparent; THD1 titrated to 488–β3-CT in the presence of 30-40 µM KIND2-Y13A; MST buffer
kindlin-2 (KIND2) [4] = target: T6, kindlin-2 (KIND2); assay: MST; apparent; KIND2 titrated to 488–β3-CT in the presence of 120 µM THD1-K402E; MST buffer

T5 sequence (P26039 1-405): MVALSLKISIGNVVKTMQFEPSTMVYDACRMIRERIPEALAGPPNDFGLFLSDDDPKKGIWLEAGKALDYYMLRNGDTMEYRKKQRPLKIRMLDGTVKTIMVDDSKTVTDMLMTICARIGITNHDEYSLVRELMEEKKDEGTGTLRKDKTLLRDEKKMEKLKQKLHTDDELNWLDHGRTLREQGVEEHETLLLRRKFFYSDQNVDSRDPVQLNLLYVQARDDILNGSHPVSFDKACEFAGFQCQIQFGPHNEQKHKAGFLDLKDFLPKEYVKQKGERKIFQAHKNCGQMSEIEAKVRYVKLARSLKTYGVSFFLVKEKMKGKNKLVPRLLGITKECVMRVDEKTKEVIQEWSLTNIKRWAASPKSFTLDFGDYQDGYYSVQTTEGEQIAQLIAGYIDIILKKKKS
T1 sequence (P26039 1-405 I398A): as the sequence (P26039 1-405) above, with I398A counted along it
T3 sequence (P26039 1-405 K404A): as the sequence (P26039 1-405) above, with K404A counted along it
T2 sequence (P26039 1-405 I396A): as the sequence (P26039 1-405) above, with I396A counted along it

B1: ATTO 488-labeled integrin β3 cytoplasmic tail (488–β3-CT) (peptide, UniProt O54890 741-787, looked up)
peptide: {ATTO 488}-KLLITIHDRKEFAKFEEERARAKWDTANNPLYKEATSTFTNITYRGT
notes: integrin β3 cytoplasmic tail (β3-CT); source: synthetic peptide (MPIB Core Facility)
Q: With B1 as the binder, how does the Kd (THD1 I398A) read?
A: Its Kd is 155 µM.

Q: And the Kd (THD1 I396A)?
A: The Kd was 551 µM.

Q: And the Kd (THD1 K404A)?
A: Its Kd is 116 µM.

Q: And the Kd (KIND2 Y13A)?
A: The Kd was 9.85 µM and 9.2 µM and 9.18 µM and 7.89 µM.

Q: What about the Kd [1] of the same binder?
A: The Kd was 81.6 µM.

Q: And the Kd (kindlin-2 (KIND2) [2])?
A: The Kd was 119 µM and 121 µM.

Q: What about the Kd [3] of the same binder?
A: Its Kd is 283 µM and 241 µM and 188 µM and 159 µM.

Q: What about the Kd (kindlin-2 (KIND2) [4]) of the same binder?
A: Its Kd is 16.4 µM and 15.8 µM and 16.7 µM.
